Data published in PMC5057103, “Crystal structure of a DNA aptamer bound to PvLDH elucidates novel single-stranded DNA structural elements for folding and recognition”.

Assays:
PvLDH = PvLDH (Plasmodium vivax, UniProt Q4PRK9 1-316); assay: X-ray crystal structure; conditions: protein: recombinant; tags: His-tag (pET28a, Histrap); chain copies: 2
hLDH-B = hLDH-B (Homo sapiens, UniProt P07195 2-334); assay: EMSA; with or without Mg2+ and EDTA; EMSA: 20 mM HEPES pH 8.0, 5% glycerol, 50 mM NaCl, 5 mM KCl, 5 mM MgCl2 (or none), 5 mM DTT, 10 pmol DNA + 200 pmol protein in 20 ul, 1 h room temperature, gel; conditions: protein: commercial; chain copies: 4; hairpin with bulge; stem I T3-A34 to A6-T31, stem II G16-C30 to G20-C26, hairpin-bulge contact A22-T12, A21-T13
hLDH-B, sequence (P07195 2-334): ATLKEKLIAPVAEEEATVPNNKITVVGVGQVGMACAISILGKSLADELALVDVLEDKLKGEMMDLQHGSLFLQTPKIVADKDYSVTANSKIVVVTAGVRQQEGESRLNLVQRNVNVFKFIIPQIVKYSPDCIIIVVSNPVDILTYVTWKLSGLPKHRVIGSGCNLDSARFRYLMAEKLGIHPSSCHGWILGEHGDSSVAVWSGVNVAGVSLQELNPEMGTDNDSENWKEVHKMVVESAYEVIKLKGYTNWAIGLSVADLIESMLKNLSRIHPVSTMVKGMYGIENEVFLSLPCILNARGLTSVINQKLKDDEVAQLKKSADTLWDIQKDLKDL

hLDH-A = hLDH-A (Homo sapiens, UniProt P00338 2-332); assay: as above

B1: pL1 (structured_DNA)
DNA: GTTCGATTGGATTGTGCCGGAAGTGCTGGCTCGAAC
- binding result (PvLDH): binds
- binding result (hLDH-B): no binding
- binding result (hLDH-A): no binding
